Experimental data from EP4624487A1.

What was measured:
antiserum B1 = assay: competition ELISA: peptide added to B1 on plate-bound hTNFα
antiserum C2 = assay: competition ELISA: peptide added to C2 on plate-bound hTNFα

| Binder | OD450 with peptide (antiserum B1) | inhibition rate (%) (antiserum B1) | OD450 with peptide (antiserum C2) | inhibition rate (%) (antiserum C2) |
| --- | --- | --- | --- | --- |
| VRSSSRTPSDKPVAH [hTNFα peptide T(1-15)] | 1.1 | 13 |  |  |
| VVANPQAEGQLQWLN [hTNFα peptide T(16-30)] | 1.06 | 9 |  |  |
| GDRLSAEINRPDYLD [hTNFα peptide H(129-143)] |  |  | 1.78 | 12 |
| SDKPVAHVVANPQAE [hTNFα peptide T(9-23)] | 1.06 | 4 |  |  |
| HVLLTHTISRIAVSY [hTNFα peptide H(73-87)] |  |  | 1.79 | -1 |
| NQLVVPSEGLYLIYS [hTNFα peptide T(46-60)] | 1.16 | 10 |  |  |
| LTHTISRIAVSYQTK [hTNFα peptide T(76-90)] | 1.12 | 13 |  |  |
| LGGVFQLEKGDRLSA [hTNFα peptide H(120-134)] |  |  | 1.77 | 10 |
| RRANALLANGVELRD [hTNFα peptide T(31-45)] | 0.106 | 91 |  |  |
| VNLLSAIKSPCQRET [hTNFα peptide T(91-105)] | 1.17 | 3 |  |  |
| DRLSAEINRPDYLDF [hTNFα peptide T(130-144)] | 1.11 | 9 |  |  |
| AHVVANPQAEGQLQW [hTNFα peptide H(14-28)] |  |  | 1.65 | 7 |
| ISRIAVSYQTKVNLL [hTNFα peptide H(80-94)] |  |  | 1.7 | 12 |
| PCQRETPEGAEAKPW [hTNFα peptide T(100-114)] | 1.06 | 14 |  |  |
| LSAIKSPCQRETPEG [hTNFα peptide H(94-108)] |  |  | 1.79 | 6 |
| QTKVNLLSAIKSPCQ [hTNFα peptide H(88-102)] |  |  | 1.78 | 5 |
| NGVELRDNQLVVPSE [hTNFα peptide T(39-53)] | 1.01 | 23 |  |  |
| PIYLGGVFQLEKGDR [hTNFα peptide H(117-131)] | 1.2 | 0 |  |  |
| SEGLYLIYSQVLFKG [hTNFα peptide H(52-66)] |  |  | 1.35 | 21 |
| QVLFKGQGCPSTHVL [hTNFα peptide H(61-75)] |  |  | 1.73 | 10 |
| LQWLNRRANALLANG [hTNFα peptide H(26-40)] |  |  | 0.313 | 82 |
| DKPVAHVVANPQAEG [hTNFα peptide H(10-24)] |  |  | 1.74 | 8 |
| ANGVELRDNQLVVPS [hTNFα peptide H(38-52)] |  |  | 1.42 | 19 |
| GQLQWLNRRANALLA [hTNFα peptide T(24-38)] | 0.103 | 92 |  |  |
